In patent EP1728864A1 (dated 2006):

What was measured:
[1] = biological target: T1, human gp39 (cell-expressed, full length) (human, UniProt P29965 1-261); assay: cell-based or functional assay
T1 sequence (looked up): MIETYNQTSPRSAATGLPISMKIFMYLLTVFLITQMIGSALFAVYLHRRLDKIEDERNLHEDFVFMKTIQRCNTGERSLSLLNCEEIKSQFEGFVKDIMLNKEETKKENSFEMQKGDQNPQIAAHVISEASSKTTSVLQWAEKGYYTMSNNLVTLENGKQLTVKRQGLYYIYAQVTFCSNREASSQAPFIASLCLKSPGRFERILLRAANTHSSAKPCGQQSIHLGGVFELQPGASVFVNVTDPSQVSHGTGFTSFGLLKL

[2] = biological target: sgp39 mutant E129/A (murine; human); assay: ELISA on captured mutant sgp39
[3] = biological target: sgp39 mutant F201/A-E202/A (murine; human); assay: ELISA on captured mutant sgp39
[4] = biological target: sgp39 mutant K143/A (murine; human); assay: ELISA on captured mutant sgp39
[5] = biological target: sgp39 mutant N180/A (murine; human); assay: ELISA on captured mutant sgp39
[6] = biological target: sgp39 mutant S131/A-T135/A (murine; human); assay: ELISA on captured mutant sgp39
[7] = biological target: sgp39 mutant Y145/A (murine; human); assay: ELISA on captured mutant sgp39
[8] = biological target: T1, human gp39 (cell-expressed, full length); assay: saturation binding of iodinated protein to BMS-10 Jurkat cells
[9] = biological target: T1, human gp39 (cell-expressed, full length); assay: saturation binding of radiolabeled protein to gp39+ Jurkat cells

B1: 39-1.7 (antibody, mouse IgG2b, V domains shown)
VH: EVQLQQSGPELVKPGASVKMSCKASGYTFTDYYMKWVKQSHGKSLEWIGNINPNNGDTFFNQKFEGKATLTVDKSSSAAYMQLNSLTSEDSAVKKCARGPGTNYFDYWGQGTTLTVSS
VL: DIVLTQSPVSLAVSLGQRVTISCRASQSVSSSTNSYMHWYQQKPGQPPKLLIKYASNLESGVPARFSGSGSGTDFTLNIHPVEEEDTATYYCQHSWEIPFTFGSGTKLEIRR
IgG synthesis, % of medium only control, 0.94 x10^12 binding sites/ml [1]: 60%
IgG synthesis, % of medium only control, 1.88 x10^12 binding sites/ml [1]: 11%
IgG synthesis, % of medium only control, 3.76 x10^12 binding sites/ml [1]: 17%
IgG synthesis, % of medium only control, 7.53 x10^12 binding sites/ml [1]: 12%
IgM synthesis, % of medium only control, 0.94 x10^12 binding sites/ml [1]: 64%
IgM synthesis, % of medium only control, 1.88 x10^12 binding sites/ml [1]: 29%
IgM synthesis, % of medium only control, 3.76 x10^12 binding sites/ml [1]: 24%
IgM synthesis, % of medium only control, 7.53 x10^12 binding sites/ml [1]: 14%
% of binding to wild-type sgp39 [2]: 70%
% of binding to wild-type sgp39 [3]: 112%
% of binding to wild-type sgp39 [4]: 5%
% of binding to wild-type sgp39 [5]: 93%
% of binding to wild-type sgp39 [6]: 89%
% of binding to wild-type sgp39 [7]: 106%

B2: 39-1.106 (antibody, mouse IgG1, V domains shown)
VH: EVKLVESGGGLVKPGGSLKLSCTTSGFTFNNYAMSWVRQTPEKRLEWVASISSGDSTYYFDSVRGRFTISRDNARNILYLQMSSLRSEDTAMYYCARHYDYDSYAMDYWGQGTSVTVS
VL: DIQMTQSPASLSASVGETVTITCRASETIYSYLAWYQQKQGRSPQLLVYNAKTLAEGVPSRFSGSGSGTQFSLKINSLQPEDFGSYYCQHHYNTPLTFGTGTKLELKR
notes: murine IgG1, kappa
IgG synthesis, % of medium only control, 0.94 x10^12 binding sites/ml [1]: 37%
IgG synthesis, % of medium only control, 1.88 x10^12 binding sites/ml [1]: 26%
IgG synthesis, % of medium only control, 3.76 x10^12 binding sites/ml [1]: 24%
IgG synthesis, % of medium only control, 7.53 x10^12 binding sites/ml [1]: 11%
IgM synthesis, % of medium only control, 0.94 x10^12 binding sites/ml [1]: 34%
IgM synthesis, % of medium only control, 1.88 x10^12 binding sites/ml [1]: 27%
IgM synthesis, % of medium only control, 3.76 x10^12 binding sites/ml [1]: 19%
IgM synthesis, % of medium only control, 7.53 x10^12 binding sites/ml [1]: 25%
% of binding to wild-type sgp39 [2]: 130%
% of binding to wild-type sgp39 [3]: 9%
% of binding to wild-type sgp39 [4]: 52%
% of binding to wild-type sgp39 [5]: 144%
% of binding to wild-type sgp39 [6]: 113%
% of binding to wild-type sgp39 [7]: 124%
Kd [8]: 0.4 nM
fold greater affinity than 106 sFv-Ig [9]: ~3 fold

B3: 106 sFv-Ig (scFv)
scFv: DIQMTQSPASLSASVGETVTITCRASETIYSYLAWYQQKQGRSPQLLVYNAKTLAEGVPSRFSGSGSGTQFSLKINSLQPEDFGSYYCQHHYNTPLTFGTGTKLELKRGGGGSGGGGSGGGGSEVKLVESGGGLVKPGGSLKLSCTTSGFTFNNYAMSWVRQTPEKRLEWVASISSGDSTYYFDSVRGRFTISRDNARNILYLQMSSLRSEDTAMYYCARHYDYDSYAMDYWGQGTSVTVS
notes: VL-linker-VH-human Ig, monomeric; L6 V kappa leader used for secretion; not shown: hinge-CH2-CH3 of human IgG1
IgG synthesis, % of medium only control, 0.94 x10^12 binding sites/ml [1]: 21%
IgG synthesis, % of medium only control, 1.88 x10^12 binding sites/ml [1]: 10%
IgG synthesis, % of medium only control, 3.76 x10^12 binding sites/ml [1]: 12%
IgG synthesis, % of medium only control, 7.53 x10^12 binding sites/ml [1]: 14%
IgM synthesis, % of medium only control, 0.94 x10^12 binding sites/ml [1]: 19%
IgM synthesis, % of medium only control, 1.88 x10^12 binding sites/ml [1]: 12%
IgM synthesis, % of medium only control, 3.76 x10^12 binding sites/ml [1]: 12%
IgM synthesis, % of medium only control, 7.53 x10^12 binding sites/ml [1]: 12%
Kd [8]: 1.6 nM
